Here are results for two molecules from PMC6414520, “CryoEM structure of adenovirus type 3 fibre with desmoglein 2 shows an unusual mode of receptor engagement” (Nature Communications, 2019).

Data set [1] addresses human adenovirus type 3 fibre knob (HAd3K), fibre residues 124-319, co-expressed with DSG2 EC2-EC3 (human adenovirus type 3) (UniProt P04501). The data set can be described thus: cryo-EM structure; complex co-expressed in E. coli and co-purified (Ni-NTA, SEC); 150 mM NaCl, 3 mM CaCl2, 10 mM Tris-Cl pH 8.0; Volta phase plate; particles with one or two EC2-EC3 modules per knob trimer sorted by classification.

Data set [2] concerns the molecule itself. The data set is described as above.

Turning to “human desmoglein 2 EC2-EC3 domains (DSG2 residues 100-337), co-expressed with HAd3K in E. coli (domain or fragment)”, in data set [1], the stoichiometry N (DSG2 per knob trimer) was determined as 2 and the stoichiometry N (receptor per knob trimer) worked out at 1.

B1: human adenovirus type 3 fibre knob (HAd3K), fibre residues 124-319, co-expressed with DSG2 EC2-EC3 (domain or fragment)
chain: NSIALKNNTLWTGPKPEANCIIEYGKQNPDSKLTLILVKNGGIVNGYVTLMGASDYVNTLFKNKNVSINVELYFDATGHILPDSSSLKTDLELKYKQTADFSARGFMPSTTAYPFVLPNAGTHNENYIFGQCYYKASDGALFPLEVTVMLNKRLPDSRTSYVMTFLWSLNAGLAPETTQATLITSPFTFSYIREDD
notes: fibre protein of human adenovirus type 3, knob, fibre residues 124-319; Trimer; also called HAd3 fibre knob; HAdK3; source: E. coli Rosetta(DE3)pLysS, pETDuet, co-expressed with EC2-EC3, complex purified (Ni-NTA, SEC)
Take B1: the “stoichiometry N” value in data set [2] turned out to be 3.

In general, stoichiometry N refers to the number of molecules, sites or subunits per partner or assembly.
